This passage reports Kd results from PMC4299599, “Quantification of cytosolic interactions identifies Ede1 oligomers as key organizers of endocytosis” (Molecular Systems Biology, 2014).

For one assay, the target named is T1, Pan1 (S. cerevisiae, UniProt P32521 1-1480).
T1 construct: Pan1, S. cerevisiae; also called Pan1-1myeGFP; Pan1-3mCherry; source: chromosomally tagged at the endogenous locus, in the cytoplasm of living S. cerevisiae cells
T1 sequence (looked up): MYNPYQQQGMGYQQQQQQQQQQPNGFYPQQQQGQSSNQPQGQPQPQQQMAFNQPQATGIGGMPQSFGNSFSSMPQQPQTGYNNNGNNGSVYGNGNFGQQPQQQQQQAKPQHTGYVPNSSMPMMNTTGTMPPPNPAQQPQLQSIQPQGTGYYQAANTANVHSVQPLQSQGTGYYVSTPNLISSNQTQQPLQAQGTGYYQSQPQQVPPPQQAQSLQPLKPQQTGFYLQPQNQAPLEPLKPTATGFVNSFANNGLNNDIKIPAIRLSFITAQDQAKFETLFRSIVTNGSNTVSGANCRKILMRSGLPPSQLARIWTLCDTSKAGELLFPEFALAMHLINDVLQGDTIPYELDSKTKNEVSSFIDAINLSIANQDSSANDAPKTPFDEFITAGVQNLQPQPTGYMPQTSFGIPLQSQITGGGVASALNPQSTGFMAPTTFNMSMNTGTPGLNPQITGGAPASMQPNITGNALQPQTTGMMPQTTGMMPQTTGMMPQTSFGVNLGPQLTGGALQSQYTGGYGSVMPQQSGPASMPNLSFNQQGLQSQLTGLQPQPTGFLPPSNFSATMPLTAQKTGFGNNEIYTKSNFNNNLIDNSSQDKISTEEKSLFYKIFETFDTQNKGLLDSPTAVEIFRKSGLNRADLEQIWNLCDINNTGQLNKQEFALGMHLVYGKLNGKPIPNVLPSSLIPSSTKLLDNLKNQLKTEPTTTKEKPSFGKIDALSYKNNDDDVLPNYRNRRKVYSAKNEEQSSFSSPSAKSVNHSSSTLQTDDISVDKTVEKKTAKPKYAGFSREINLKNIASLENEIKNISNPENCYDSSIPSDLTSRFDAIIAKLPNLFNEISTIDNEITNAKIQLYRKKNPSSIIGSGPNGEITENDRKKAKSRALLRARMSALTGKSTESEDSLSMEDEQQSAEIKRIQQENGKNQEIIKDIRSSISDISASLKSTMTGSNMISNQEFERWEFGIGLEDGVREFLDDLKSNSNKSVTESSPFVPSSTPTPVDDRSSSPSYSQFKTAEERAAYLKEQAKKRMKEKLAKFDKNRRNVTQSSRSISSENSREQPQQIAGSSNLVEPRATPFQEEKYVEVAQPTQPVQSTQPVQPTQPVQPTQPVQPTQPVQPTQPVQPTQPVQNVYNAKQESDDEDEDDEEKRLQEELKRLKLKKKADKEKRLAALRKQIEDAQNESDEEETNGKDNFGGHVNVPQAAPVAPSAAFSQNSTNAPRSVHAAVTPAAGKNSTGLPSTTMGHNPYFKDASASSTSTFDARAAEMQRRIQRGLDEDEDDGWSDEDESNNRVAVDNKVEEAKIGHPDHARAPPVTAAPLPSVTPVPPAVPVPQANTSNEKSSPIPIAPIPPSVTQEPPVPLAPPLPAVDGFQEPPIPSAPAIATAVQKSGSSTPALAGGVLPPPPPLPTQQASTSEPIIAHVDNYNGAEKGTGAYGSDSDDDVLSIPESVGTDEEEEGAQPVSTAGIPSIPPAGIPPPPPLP
Put plainly: fluorescence cross-correlation spectroscopy (FCCS); in the cytoplasm of living yeast cells; first-named protein green (3myeGFP or 1myeGFP; eGFP for Don1), second red (3mCherry); self-interaction in diploid strains with one allele of each colour; apparent or effective KD (Kdeff) from single-cell measurements; only Kdeff values < 1000 nM are shown; values for self-interactions are upper limits. To be noted: partners not purified.

The target in a further assay is T2, Sla2 (S. cerevisiae, UniProt P33338 1-968).
T2 construct: Sla2, S. cerevisiae; also called Sla2-3myeGFP; Sla2-3mCherry; source: chromosomally tagged at the endogenous locus, in the cytoplasm of living S. cerevisiae cells
T2 sequence (looked up): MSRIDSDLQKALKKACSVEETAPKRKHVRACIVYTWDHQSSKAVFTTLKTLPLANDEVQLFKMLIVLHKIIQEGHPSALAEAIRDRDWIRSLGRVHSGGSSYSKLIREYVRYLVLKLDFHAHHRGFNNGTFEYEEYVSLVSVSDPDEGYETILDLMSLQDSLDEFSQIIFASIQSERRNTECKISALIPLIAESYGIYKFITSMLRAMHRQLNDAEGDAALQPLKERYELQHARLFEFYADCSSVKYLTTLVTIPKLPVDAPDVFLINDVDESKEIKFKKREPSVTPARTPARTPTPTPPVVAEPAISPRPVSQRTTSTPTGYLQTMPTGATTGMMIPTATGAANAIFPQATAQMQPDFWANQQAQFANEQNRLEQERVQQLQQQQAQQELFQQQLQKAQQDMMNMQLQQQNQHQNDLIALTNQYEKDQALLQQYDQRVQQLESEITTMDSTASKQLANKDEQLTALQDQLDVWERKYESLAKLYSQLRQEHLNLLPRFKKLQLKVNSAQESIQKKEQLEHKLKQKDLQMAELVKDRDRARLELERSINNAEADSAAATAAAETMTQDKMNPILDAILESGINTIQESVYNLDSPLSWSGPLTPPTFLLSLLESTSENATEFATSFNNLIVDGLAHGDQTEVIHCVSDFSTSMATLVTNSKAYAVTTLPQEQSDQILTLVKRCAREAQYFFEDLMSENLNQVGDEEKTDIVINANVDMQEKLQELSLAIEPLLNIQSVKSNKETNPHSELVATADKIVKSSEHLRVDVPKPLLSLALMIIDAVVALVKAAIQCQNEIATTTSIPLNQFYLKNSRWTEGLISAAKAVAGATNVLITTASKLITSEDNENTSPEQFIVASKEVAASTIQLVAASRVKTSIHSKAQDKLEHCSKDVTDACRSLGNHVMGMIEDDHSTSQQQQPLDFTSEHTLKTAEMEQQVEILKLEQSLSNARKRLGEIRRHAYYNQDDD
Described as above. The following applies: partners not purified.

B1: End3 (natural protein, S. cerevisiae, UniProt P39013 1-349, looked up)
chain: MPKLEQFEIKKYWQIFSGLKPIENKVNHDQVLPILYNSKLDSSVLNKIWFLADIDDDDNLDFEEFVICMRLIFDMVNKNISSVPDELPDWLIPGSKVNLIKERKKRKQIENADLPPKKEIKVDWYMSPDDLNQYEKIYNSCAKLTDGTITFNELSTKLSTKFFNISKTDLNKVWSLINPQNLPSIDRDPTFYFIHCLRQRNDLGAEIPASLPNSLAEVCNKKQLSYDLRSSQPPTKRKEEANEVDNLRDNGQNSSSDSSGSNVLSNEDSIKQKYASLTDDQVANMREQLEGLLNYKKSEKTQGGSKLSKRINIRSITDDLDNIEQQVEVLENYLNNKRHELQALQAEIN
notes: End3, S. cerevisiae; also called End3-3myeGFP; End3-3mCherry; source: chromosomally tagged at the endogenous locus, in the cytoplasm of living S. cerevisiae cells
Turning to B1, the Kd with Pan1 came to 27 nM; in the assay with Sla2 it was 622 nM.
